The supplement of paper PMC12636428

System: Saccharomyces cerevisiae
Assay: transcriptional activation domain activity (GFP:mCherry ratio, weighted mean of sorted bins, harmonized to initial dataset scale) (arbitrary fluorescence ratio units); higher = stronger transcriptional activation
Conditions: beta-estradiol 1 µM; induction time 4 h
Method in brief: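 Yeast diploids with a GFP reporter received barcoded protein tiles, fused to an estradiol-inducible synthetic transcription factor, at the URA3 locus. Cultures were diluted 1:5 into SC holding 1 uM beta-estradiol, incubated 4 hours at 30 °C, sorted into 8 bins on GFP:mCherry ratio, and sequenced for barcodes, with tiles under 50 reads discarded. Activation activity values come from the read-weighted mean of bin median fluorescence, averaged across barcodes and linearly placed on the initial dataset scale.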

LFLLLMFQGLDIFTPGIRVLHFRICLLLLLLIILLAVPLLFSYIHLTAFTIFY
transcriptional activation domain activity: 59100

VACAVLIAVSIFATIYVVLTSLPVIFQQCPFQTPLSSIIWYLGHLLVIASLSL
transcriptional activation domain activity: 28400

MPSAATRPCVQCAAAASRYNCPQCRASTCSAPCSKAHKLRAHGSDAAAGPSSA
transcriptional activation domain activity: 47500

TRHARALEVIKFTKRILSVGGMKYRERMFWWCPIDSATVRAWMLWVLGSIPLV
transcriptional activation domain activity: 62900

IYESALQTEHHKQGIGRSIAEAVKNRELSGFDQFQQIISFCLCVLKQLYRRFT
transcriptional activation domain activity: 37600

ADSGDEYVQDRRDGPAKGGKAPRREKDGRDEEGGRKKAAKKRKRKVQAQPEID
transcriptional activation domain activity: 30100

APQGEEKAPAPRRSKRAKTAAPSDQETEETATKVVAGKAGAGKGKAVAAKAAA
transcriptional activation domain activity: 51800

MYTYTITFLSFISTIPLHSFLLFEQAYEYLCILLSLTVCLQTQLLLNICLLPF
transcriptional activation domain activity: 73000

RGDGMEERKGEKRGRKGGERGGRGEGGHRGRKGDTEGGRGTGEKRGGKGGKRG
transcriptional activation domain activity: 33500

LLFFSLSLFKKKYLPFILFFFFFYSSLFFFFYPFLFNFFSFFLIFFFFFSLQV
transcriptional activation domain activity: 34300

RYPFILFPFYSLLSHFLLLLTEIALCLKYCLLLSLCSPILLFLLVFLLLAFCL
transcriptional activation domain activity: 47600

MLVRISLFLTLPFTLNLLPTMDLCCIGNVKILNYLSKCIHGSLCNHSIILIRL
transcriptional activation domain activity: 56300

YNGYHKVGEHYLLCKAVVDHKKKSSIHVHLIEVQPTVFNILEGLLYPKILFSS
transcriptional activation domain activity: 53500

MCVGTCIYINIPGLHRCYLLLLHLRLSYHIPMYMFIGVPGLRFRVALLISSYF
transcriptional activation domain activity: 53300

YTLILSLFYSLAPVLFRLSSAAFFNISLLTGSFWGVAIGVKVFHLSIHWMYPI
transcriptional activation domain activity: 42600

AFLLFLIYLTFFCWVCFATSATWVWSEILSDNQYTESFMPINDVLLAVLSGII
transcriptional activation domain activity: 38700

IKFGVPVALIVIIAAVVGGVLGSRASKNSSASSSAAGDSSSPSGEAAASGAAV
transcriptional activation domain activity: 48300

LPNVCLILPVYLRALVLNTLQVDKDQRTLLYESIRGHIVTLRGCKTGSKVIWL
transcriptional activation domain activity: 60800

TGSTIVRGVLHVFSDQKVNLEQISFGQLNKMIGLLGERRDYRTLSWLLTILWN
transcriptional activation domain activity: 73300

KGRAEKKKKSSRRRDESESEGEEGEGGGGGGGRAPPKKRARLASKKEAQSGKY
transcriptional activation domain activity: 31500

MVVFLFSFRVWVLLWICKISFINFVPMSTCRGLMVVRLRLNQTWGIRSLVPWL
transcriptional activation domain activity: 29600

GKKRKSTGAKSREQPKAKRIAKAKTKTGAFGAGRKGATAGHAKGRAAAAGPKA
transcriptional activation domain activity: 59000

MWLLHFSFLRVLPLFLLMLRCLLLAICIVTYINGPTLVFSHPLITIYSLTLLA
transcriptional activation domain activity: 56200

SNARGSDPSSYAIEGEYKTLATDDLGNILNLNYGETNEVIMNEINDLNLPLGP
transcriptional activation domain activity: 112000

MVRSGILKCELLQNLSTVYPTIYLVLCCYSIVFFFNACLSFLVLFMHFAFLVK
transcriptional activation domain activity: 52800

RPSGASTPVQPTPEPDNKKRRRGKGGDDAETDGKPVKKAKRGRKPKVVQEPKV
transcriptional activation domain activity: 33200

YPVGKQVLARYPETTTFYRAEVMGTKRDGTCRLKFEGEEEVGKETEVERRLVL
transcriptional activation domain activity: 77100

MLRCLLSFLLYIYQFKYCNAQVSINVPIDGRQFKFIESFQFLNLPFNVITSTV
transcriptional activation domain activity: 67900

HLLILRFVAHFSHLGLGCSSYSLMFYVLSYLLYISLLSNIISLYPPSCLYLAH
transcriptional activation domain activity: 45400

VEANTSANLHFDNVIPTVTNADIRKKRSNWDNMMTSGPVEDFWTINDDYGFLT
transcriptional activation domain activity: 141000

AYWVVLGIWWFIFQQHCPGPPLPMGKNYLTIGWKQIWLAVKQYKHMPYTFIYL
transcriptional activation domain activity: 53300

LLVFGFEEHFFFFIFFFLVDGSAFCMFCDVFHFYVCCYVPHLLCLTLVIAGVS
transcriptional activation domain activity: 73000

MRCLRSVLGVFFLSYSLYILHCIFCLISYPLAISFMNLSCLGWFHGFWGFIYF
transcriptional activation domain activity: 36000

IQFSLIPLSILSFCINHFGLGCDVWTVSFAHITDVLHITYWVEILYTLCLYFV
transcriptional activation domain activity: 40700

VHANQYYQLDVEIFKSSLDMELLGLLWNKYWINTLSQSPLISVSLFCYGHIFI
transcriptional activation domain activity: 57800

MRLLAYGLMSSGVLLAHVVHIWRQRGFFFATCIGLTNHNFGLLVIMNFCLFCS
transcriptional activation domain activity: 56000

IWDLWTFGGLDFWGLGFGIWDLGLGFGDWDFIYPPPLPVSVFFLLFLSFGVCW
transcriptional activation domain activity: 56900

SMLKIARQSPRGIRDSKGGEGFLLLESGDQSTNIVTVVRIKLLMEKLYTLPEL
transcriptional activation domain activity: 32200

AVLEFYEQSTRLVASDALGRHVRIELPPRLLVYVVFFSPSVAVVSRLCSLLAC
transcriptional activation domain activity: 35600

RGRLPCRYTIWIYSLTRVACLLGVIVCTVGMDVSTSYNCQLWVSSVATLFCVT
transcriptional activation domain activity: 70300

MCRTLISFSLFVGVFILTSIRFFCLSLFFLSSFIFYFTLLLFFLLFLSGLFDL
transcriptional activation domain activity: 50300

KQYCVRPNSGRIEPGKEVEVQVLLQAMREDPPPDARCRDKFLVQSVAMTGENE
transcriptional activation domain activity: 29400

MPLCSLHTYKGGWLWLWWLRWWWRNNNCEALNFSFFFFFFFFLFLFRGVDGVL
transcriptional activation domain activity: 66000

FSFFHPLHFLPWLLYPSPLISLFFLSFFILFSFFVFFFSCPFFLSLFHIFFPV
transcriptional activation domain activity: 33000

ALKKKDGDKDSADFLSQLRMGKSVLHGVDKEGRPVVSVRVRLHKGGEQTEKSL
transcriptional activation domain activity: 36600

VGVWIWVRVDLLSYRKAGFIDWLFTDVPPKLALIAIFNVHILHTLLLALQWYT
transcriptional activation domain activity: 55400

MYELIGQGVSFFCCYFACVCFALHFCFGPYFGLWLWHCIFKTFFFLLVFFPNY
transcriptional activation domain activity: 61200

KFANNVSEMKKLGARDFEDILQNLIPVVDGLLDEPYNSWILTLLFRLAEWHAL
transcriptional activation domain activity: 42400

MTLCTFFGCLLTAYSPLLSIFFLYIAPNAQYVLLMVASAFFCLLALLLSSVIW
transcriptional activation domain activity: 55000

MTRAFTIMINLITIVLSFLMSQSFTSYVCHILLCPLANLRPQLLYIWWVSPVL
transcriptional activation domain activity: 54200

MPSFTFAWPDRAYFYSLLVVSLLSAKFLHLFSHLTALPIFLFLLYFPTFVFLD
transcriptional activation domain activity: 71900

RVFTKIRRLLIRLKKHDIHAVCAALLTYIFWPTAFLRAYCLDSIYYDPASRDK
transcriptional activation domain activity: 54100

AFRWIAAFYGLTLATHFTGTVILVSHIAHHVVQAKCILGHRGGPYFYIMRVLV
transcriptional activation domain activity: 61400

ADAGGKDKGEKVAGDAEGAPAEGKAEVKGEARAETAVEGAEQQSNGKKRKAAS
transcriptional activation domain activity: 34200

RVLETPAIFPSFLNTALFPMPFIVGLILFFFFALFPFPLPFLSPSFFPSILQY
transcriptional activation domain activity: 43200

WRKQWLVPLLIRYFNQMVLTLIRWFPLRCLYYTLIKGQAYEGLNKEYDADGIH
transcriptional activation domain activity: 58300

GSRRPRKDKSHKKKDRSSGDGTEKERKHRDRGDKGDRERAKSRERGEKGKRDR
transcriptional activation domain activity: 20500

DNMHVPGRFKDPNFLFYIQTMISSYALPFVRKAAILMHVRYGVELPSIPFECV
transcriptional activation domain activity: 75400

MSFLYFIRCFVSFHLELLDCYYMMIECLFIFLIFCITICLPFICLYSLLVECF
transcriptional activation domain activity: 49800

KTIFFCGGRFLTSRALWAFCLSMFLFVMPSVLFLIFTCPWLWHHISPAVPIIF
transcriptional activation domain activity: 41300

MSNVYNCHPALLCYLALPCPTHLCLLSSLFPSVVSTVHAFLLLFLALCPISWI
transcriptional activation domain activity: 71400

KDRKEKAEEKSGEEDRGKREDGAAEGEEREEVKRSAARKPKTVPAAASKKRPK
transcriptional activation domain activity: 34600

ESNVAGTAGSKPRKPRAKTQKKMRPSENSQAEKSDRSATRKSREPTGTRRGRK
transcriptional activation domain activity: 24800

LILRMQVATLTKLWGLPPEFEIVCRDIWALHLSLLPDPPPPEPYYFHERGDGM
transcriptional activation domain activity: 34400

GRRRVWTSLLDRGAGGEGGAGYVCGVTIDEGSNISGDHIQSTCILVDEYCELC
transcriptional activation domain activity: 74500

PVKETETAAVPEVTAEPEAEAAKPAEAPKEEKKEEKKEAKSPKVSRRLSQRVE
transcriptional activation domain activity: 58300

MVLLSVLCVLICNYFCLLVFTVAMGMPSGPPVRPLFQVILAHRRYLFSFRTHW
transcriptional activation domain activity: 82500

GSYCISLVNVLVAFGVVLLHASTSGLWHWNPPFRAPNSVVFIYLLSNIFLITV
transcriptional activation domain activity: 55000

WHTDLGIPSFGWTLLHELEGLLGRIEANWMEEVTVRTIVLLTSRLLSAVRDHD
transcriptional activation domain activity: 55200

RHRRHRRSRSRDREGGRDRGRDGRRDERREERKVERRNEGRDEGRVEGRGRDA
transcriptional activation domain activity: 40000

NNGKGQGKRRASSSALAAEKMVEKEAWLRSPKAVCTLSIAVMRSALHLMNAHL
transcriptional activation domain activity: 67700

MIMGKVVGSIPTVSNFLPFSFLFFFSSFLFSSLSSCEVVCLIISFFSFFHWLS
transcriptional activation domain activity: 55200

ERPFFALVVCGEYAHLSPETRVKVAQLLLRCLPAPNLSLLVYLLSFLSHFQHA
transcriptional activation domain activity: 62200

VFFVWICCCYGTHILSVFVDPSGMYIVPLNILGSLLHGSTLPCIVASWLIIHL
transcriptional activation domain activity: 45600

RWGGILNTHLCLLSTLVLCCTMLRFCINVIWTDTFVNWEMGWRTVCPWLLILL
transcriptional activation domain activity: 44600

KQYCVRPNSGRIEGGGEVEVQVLLQAMKEDPPLDAKCKDKFLVQSVAVAADRE
transcriptional activation domain activity: 46900

MFMGTLLLVFMDYGWAFFLDCYLWFFVTSLCFWYVKFCLLVGCCILVLCNVAW
transcriptional activation domain activity: 31700

MVSTRRQERDKEKKEKRKEEKEKEKGEGKTEKKKKKKSGDKKSKKGEGRTKEG
transcriptional activation domain activity: 21200

FFFFHFFFFWSSLRHIFQVLILGALGFLFFHFSFFIFHFSFFIFHFHFLFFFS
transcriptional activation domain activity: 50400

SFCFILPFTALTLFIFFLSRISCWSAVWWLDDFWLLHICLDISFTFFLFYSFF
transcriptional activation domain activity: 62800

FNNDGWDTSLPIDFDFDEFNTETTDFDDFLKLLGDNSPSKEQKSLSYSPTATG
transcriptional activation domain activity: 162000

YIIPFAWLAAIGHFAVSLVIFDFAPLIHTWDVTLETLSHWLFYFRLSSILYNF
transcriptional activation domain activity: 35200

FFSSFLFFSFLFFSVVLSFLLFFSLLFSSPLFFPFLPFPSLSFPSLPSSPLLF
transcriptional activation domain activity: 35200
